The values below come from the supplement of paper PMC5998384.

Data set [1] concerns HeLa Kyoto. Nature of the data set: solubility in G1/S (NP-40 vs SDS abundance) (log2 ratio); higher = more soluble. The settings on record: cell cycle stage: G1/S.
For data set [2], the system named is HeLa Kyoto. As to the kind of experiment: melting temperature (median over replicates), in situ; higher = more thermally stable.
The test system of data set [3] is HeLa Kyoto. As to the kind of experiment: solubility change mitosis vs G1/S (difference of NP-40 vs SDS log2 ratios) (log2 ratio difference); higher = more soluble in mitosis.
In data set [4] the test system is HeLa Kyoto. Nature of the data set: thermal stability score vs G1/S (z-score of summed log2 fold changes over temperatures); higher = more thermally stable than in G1/S.
Setting [5] is: cell cycle stage: early G1 (4.5 h after nocodazole release).
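Wherever melting temperature (median over replicates), in situ is given: HeLa Kyoto cells synchronized by double thymidine or nocodazole block, proteins quantified by TMT10plex mass spectrometry, three independent biological replicates.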
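Wherever solubility change mitosis vs G1/S (difference of NP-40 vs SDS log2 ratios) is given: synchronized HeLa Kyoto cells (double thymidine block for G1/S, nocodazole release for mitosis), protein amounts in NP-40 versus SDS lysates quantified by mass spectrometry, three biological replicates.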
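Wherever solubility in G1/S (NP-40 vs SDS abundance) is given: HeLa Kyoto cells arrested at G1/S by double thymidine block, proteins quantified by TMT10plex mass spectrometry in mild NP-40 versus SDS extracts, three biological replicates.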
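Wherever thermal stability score vs G1/S (z-score of summed log2 fold changes over temperatures) is given: synchronized HeLa Kyoto cells, proteins quantified by TMT10plex mass spectrometry, three biological replicates, mitosis taken 0.5 h after nocodazole release, G1/S directly after double thymidine block.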

“MGAPLLSPGWGAGAAGRRWWMLLAPLLPALLLVRPAGALVEGLYCGTRDCYEVLGVSRSAGKAEIARAYRQLARRYHPDRYRPQPGDEGPGRTPQSAEEAFLLVATAYETLKDEETRKDYDYMLDHPEEYYSHYYHYYSRRLAPKVDVRVVILVSVCAISVFQFFSWWNSYNKAISYLATVPKYRIQATEIAKQQGLLKKAKEKGKNKKSKEEIRDEEENIIKNIIKSKIDIKGGYQKPQICDLLLFQIILAPFHLCSYIVWYCRWIYNFNIKGKEYGEEERLYIIRKSMKMSKSQFDSLEDHQKETFLKRELWIKENYEVYKQEQEEELKKKLANDPRWKRYRRWMKNEGPGRLTFVDD [DNAJC25]”: the “solubility in G1/S (log2)” value with HeLa Kyoto [1] was -0.101. Besides, the melting temperature worked out at 50.5 °C with HeLa Kyoto [2] (cell cycle stage: G1/S) and 50.2 °C in the data set on HeLa Kyoto [2] (cell cycle stage: mitosis). In addition, the “solubility change mitosis (log2)” value with HeLa Kyoto [3] turned out to be 0.00727. Besides, the thermal stability score in the data set on HeLa Kyoto [4] (setting [5]) was 0.0789; with HeLa Kyoto [4] (cell cycle stage: mitosis), -0.224.

As for “MAGQGLPLHVATLLTGLLECLGFAGVLFGWPSLVFVFKNEDYFKDLCGPDAGPIGNATGQADCKAQDERFSLIFTLGSFMNNFMTFPTGYIFDRFKTTVARLIAIFFYTTATLIIAFTSAGSAVLLFLAMPMLTIGGILFLITNLQIGNLFGQHRSTIITLYNGAFDSSSAVFLIIKLLYEKGISLRASFIFISVCSTWHVARTFLLMPRGHIPYPLPPNYSYGLCPGNGTTKEEKETAEHENRELQSKEFLSAKEETPGAGQKQELRSFWSYAFSRRFAWHLVWLSVIQLWHYLFIGTLNSLLTNMAGGDMARVSTYTNAFAFTQFGVLCAPWNGLLMDRLKQKYQKEARKTGSSTLAVALCSTVPSLALTSLLCLGFALCASVPILPLQYLTFILQVISRSFLYGSNAAFLTLAFPSEHFGKLFGLVMALSAVVSLLQFPIFTLIKGSLQNDPFYVNVMFMLAILLTFFHPFLVYRECRTWKESPSAIA [SLC43A3]”, in the data set with HeLa Kyoto [1], the “solubility in G1/S (log2)” value amounted to 0.205. Also, the results for the melting temperature in the data set on HeLa Kyoto [2] (cell cycle stage: G1/S) and in the data set with HeLa Kyoto [2] (cell cycle stage: mitosis) were 58.3 °C and 58.2 °C, respectively. Further, in the data set on HeLa Kyoto [3], the “solubility change mitosis (log2)” value was -0.114. The thermal stability score was -0.857 in the data set on HeLa Kyoto [4] (setting [5]) and -2.36 with HeLa Kyoto [4] (cell cycle stage: mitosis).

As for “MSSTLAKIAEIEAEMARTQKNKATAHHLGLLKARLAKLRRELITPKGGGGGGPGEGFDVAKTGDARIGFVGFPSVGKSTLLSNLAGVYSEVAAYEFTTLTTVPGVIRYKGAKIQLLDLPGIIEGAKDGKGRGRQVIAVARTCNLILIVLDVLKPLGHKKIIENELEGFGIRLNSKPPNIGFKKKDKGGINLTATCPQSELDAETVKSILAEYKIHNADVTLRSDATADDLIDVVEGNRVYIPCIYVLNKIDQISIEELDIIYKVPHCVPISAHHRWNFDDLLEKIWDYLKLVRIYTKPKGQLPDYTSPVVLPYSRTTVEDFCMKIHKNLIKEFKYALVWGLSVKHNPQKVGKDHTLEDEDVIQIVKK [DRG1]”, the “solubility in G1/S (log2)” value in the data set with HeLa Kyoto [1] was 0.118. Besides, the results for the melting temperature in the data set on HeLa Kyoto [2] (cell cycle stage: G1/S) and in the data set on HeLa Kyoto [2] (cell cycle stage: mitosis) were 53.8 °C and 53.4 °C, respectively. For the same substance, the “solubility change mitosis (log2)” value in the data set with HeLa Kyoto [3] was -0.0219. Further, the thermal stability score in the data set on HeLa Kyoto [4] (setting [5]) was -0.58; in the data set on HeLa Kyoto [4] (cell cycle stage: mitosis), -2.04.

With “MAAPLIPLSQQIPTGNSLYESYYKQVDPAYTGRVGASEAALFLKKSGLSDIILGKIWDLADPEGKGFLDKQGFYVALRLVACAQSGHEVTLSNLNLSMPPPKFHDTSSPLMVTPPSAEAHWAVRVEEKAKFDGIFESLLPINGLLSGDKVKPVLMNSKLPLDVLGRVWDLSDIDKDGHLDRDEFAVAMHLVYRALEKEPVPSALPPSLIPPSKRKKTVFPGAVPVLPASPPPKDSLRSTPSHGSVSSLNSTGSLSPKHSLKQTQPTVNWVVPVADKMRFDEIFLKTDLDLDGYVSGQEVKEIFMHSGLTQNLLAHIWALADTRQTGKLSKDQFALAMYFIQQKVSKGIDPPQVLSPDMVPPSERGTPGPDSSGSLGSGEFTGVKELDDISQEIAQLQREKYSLEQDIREKEEAIRQKTSEVQELQNDLDRETSSLQELEAQKQDAQDRLDEMDQQKAKLRDMLSDVRQKCQDETQMISSLKTQIQSQESDLKSQEDDLNRAKSELNRLQQEETQLEQSIQAGRVQLETIIKSLKSTQDEINQARSKLSQLHESRQEAHRSLEQYDQVLDGAHGASLTDLANLSEGVSLAERGSFGAMDDPFKNKALLFSNNTQELHPDPFQTEDPFKSDPFKGADPFKGDPFQNDPFAEQQTTSTDPFGGDPFKESDPFRGSATDDFFKKQTKNDPFTSDPFTKNPSLPSKLDPFESSDPFSSSSVSSKGSDPFGTLDPFGSGSFNSAEGFADFSQMSKPPPSGPFTSSLGGAGFSDDPFKSKQDTPALPPKKPAPPRPKPPSGKSTPVSQLGSADFPEAPDPFQPLGADSGDPFQSKKGFGDPFSGKDPFVPSSAAKPSKASASGFADFTSVS [EPS15L1]”, the “solubility in G1/S (log2)” value with HeLa Kyoto [1] is 0.43. Besides, the results for the melting temperature with HeLa Kyoto [2] (cell cycle stage: G1/S) and in the data set on HeLa Kyoto [2] (cell cycle stage: mitosis) were 49.6 °C and 51.2 °C, respectively. Moreover, in the data set on HeLa Kyoto [3], the “solubility change mitosis (log2)” value is -0.0276. For the same substance, the thermal stability score in the data set on HeLa Kyoto [4] (setting [5]) worked out at 0.244; in the data set with HeLa Kyoto [4] (cell cycle stage: mitosis) it was 1.69.

With TXNDC5, in the data set with HeLa Kyoto [1], the “solubility in G1/S (log2)” value was 0.348. The melting temperature in the data set with HeLa Kyoto [2] (cell cycle stage: G1/S) was 55.3 °C; in the data set on HeLa Kyoto [2] (cell cycle stage: mitosis), 57.3 °C. Moreover, in the data set on HeLa Kyoto [3], the “solubility change mitosis (log2)” value is -0.0668. The thermal stability score turned out to be 3.49 in the data set with HeLa Kyoto [4] (setting [5]) and 3.79 with HeLa Kyoto [4] (cell cycle stage: mitosis).

Turning to “MAQADIALIGLAVMGQNLILNMNDHGFVVCAFNRTVSKVDDFLANEAKGTKVVGAQSLKEMVSKLKKPRRIILLVKAGQAVDDFIEKLVPLLDTGDIIIDGGNSEYRDTTRRCRDLKAKGILFVGSGVSGGEEGARYGPSLMPGGNKEAWPHIKTIFQGIAAKVGTGEPCCDWVGDEGAGHFVKMVHNGIEYGDMQLICEAYHLMKDVLGMAQDEMAQAFEDWNKTELDSFLIEITANILKFQDTDGKHLLPKIRDSAGQKGTGKWTAISALEYGVPVTLIGEAVFARCLSSLKDERIQASKKLKGPQKFQFDGDKKSFLEDIRKALYASKIISYAQGFMLLRQAATEFGWTLNYGGIALMWRGGCIIRSVFLGKIKDAFDRNPELQNLLLDDFFKSAVENCQDSWRRAVSTGVQAGIPMPCFTTALSFYDGYRHEMLPASLIQAQRDYFGAHTYELLAKPGQFIHTNWTGHGGTVSSSSYNA [PGD]”, the “solubility in G1/S (log2)” value in the data set with HeLa Kyoto [1] stood at 0.123. Also, the melting temperature with HeLa Kyoto [2] (cell cycle stage: G1/S) and with HeLa Kyoto [2] (cell cycle stage: mitosis) was 54.4 °C throughout. The “solubility change mitosis (log2)” value in the data set with HeLa Kyoto [3] was -0.184. The thermal stability score with HeLa Kyoto [4] (setting [5]) is 1.53; with HeLa Kyoto [4] (cell cycle stage: mitosis) it was 0.62.
